Measurements taken from US20240148898A1 (CELLEMEDY, published 2024).
Substitutions are numbered along the chain they refer to.

Experiments:
[1] = biological target: T1, mouse transferrin receptor (mouse, UniProt Q62351 89-763, limits assumed); experiment: MST (Monolith NT.115), His-tag-dye-labelled protein, TfR titrated
T1 construct: also called TfR Mouse
Protocol: (§1) First, 100 μl of dye that specifically binds to a hexa-His tag (RED-tris-NTA 2nd Generation Dye) was prepared at a concentration of 50 nM, along with 100 μl of the produced protein at a concentration of 200 nM, followed by mixing the same and incubating at room temperature for 30 minutes. The incubated product was centrifuged at 13000 rpm for 10 minutes at 4° C. by a centrifuge, thus to separate the supernatant and obtain a dye-labeled protein.
(§2) Then, 25 μl of 9.65 μM transferrin receptor was added to the 1st PCR tube; 10 μl of PBS-T (PBS+0.5% tween 20) buffer was added to 2nd to 16th PCR tubes; 10 μl of transferrin in the 1st PCR tube was transferred to the 2nd PCR tube; and 10 μl was again transferred from the 2nd PCR tube to the 3rd PCR tube. Likewise, this procedure was continued up to the 16th tube thus to perform ½ dilution in a sequential order so that each of the 2nd to 16th PCR tubes becomes 20 μl.
(§3) Thereafter, 10 μl of the dye-labeled protein was added to each PCR tube, and the reaction was performed at room temperature for 1 hour.

[2] = biological target: T2, human transferrin receptor (human, UniProt P02786 89-760, limits assumed); experiment: as above
T2 construct: also called TfR Human
T2 sequence (P02786 89-760 limits assumed): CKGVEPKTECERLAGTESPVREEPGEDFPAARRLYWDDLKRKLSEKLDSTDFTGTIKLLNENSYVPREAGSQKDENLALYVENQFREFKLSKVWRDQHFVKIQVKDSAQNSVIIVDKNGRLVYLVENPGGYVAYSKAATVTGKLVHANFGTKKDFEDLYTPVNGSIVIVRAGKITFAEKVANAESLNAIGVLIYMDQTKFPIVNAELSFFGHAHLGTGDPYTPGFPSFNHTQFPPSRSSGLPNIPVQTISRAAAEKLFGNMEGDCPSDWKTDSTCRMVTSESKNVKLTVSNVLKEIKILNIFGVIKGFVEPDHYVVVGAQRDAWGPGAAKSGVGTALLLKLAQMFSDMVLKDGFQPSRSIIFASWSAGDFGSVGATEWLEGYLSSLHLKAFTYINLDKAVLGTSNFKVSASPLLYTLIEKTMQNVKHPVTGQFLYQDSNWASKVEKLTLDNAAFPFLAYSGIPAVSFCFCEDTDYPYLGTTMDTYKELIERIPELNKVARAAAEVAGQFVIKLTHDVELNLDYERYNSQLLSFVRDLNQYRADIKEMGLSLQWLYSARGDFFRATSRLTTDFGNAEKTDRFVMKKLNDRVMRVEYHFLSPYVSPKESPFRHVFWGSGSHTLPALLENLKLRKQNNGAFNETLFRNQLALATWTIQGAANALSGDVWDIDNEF
Protocol: as §1, §2, §3

[3] = biological target: T3, transferrin receptor (TfR), species not stated; experiment: Microscale Thermophoresis (MST) with the transferrin receptor, Example 5; species of TfR not given on the sheet or in the legend (value coincides with the Mouse TfR row of Table 5)
T3 construct: also called the transferrin receptor
T3 sequence (P02786 whole entry): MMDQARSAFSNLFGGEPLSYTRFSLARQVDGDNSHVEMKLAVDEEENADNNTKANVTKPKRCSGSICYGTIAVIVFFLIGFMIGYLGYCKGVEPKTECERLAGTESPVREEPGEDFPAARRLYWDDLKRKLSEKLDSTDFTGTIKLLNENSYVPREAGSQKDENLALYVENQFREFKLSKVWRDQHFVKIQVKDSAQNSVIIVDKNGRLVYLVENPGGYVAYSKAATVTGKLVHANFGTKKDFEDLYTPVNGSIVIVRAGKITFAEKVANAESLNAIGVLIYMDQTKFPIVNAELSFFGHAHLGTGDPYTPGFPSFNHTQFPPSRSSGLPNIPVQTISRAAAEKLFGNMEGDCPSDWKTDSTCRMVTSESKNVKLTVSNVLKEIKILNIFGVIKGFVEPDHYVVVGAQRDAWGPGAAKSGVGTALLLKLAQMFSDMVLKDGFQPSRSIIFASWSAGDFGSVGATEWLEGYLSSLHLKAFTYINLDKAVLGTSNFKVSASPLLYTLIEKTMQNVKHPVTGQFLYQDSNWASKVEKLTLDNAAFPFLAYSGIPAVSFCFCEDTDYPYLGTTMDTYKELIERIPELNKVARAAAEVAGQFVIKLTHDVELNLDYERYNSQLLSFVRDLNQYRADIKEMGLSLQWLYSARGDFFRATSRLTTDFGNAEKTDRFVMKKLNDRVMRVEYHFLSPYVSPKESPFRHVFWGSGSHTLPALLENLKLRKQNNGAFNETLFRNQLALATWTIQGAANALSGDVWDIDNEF

T1 sequence (Q62351 89-763 limits assumed): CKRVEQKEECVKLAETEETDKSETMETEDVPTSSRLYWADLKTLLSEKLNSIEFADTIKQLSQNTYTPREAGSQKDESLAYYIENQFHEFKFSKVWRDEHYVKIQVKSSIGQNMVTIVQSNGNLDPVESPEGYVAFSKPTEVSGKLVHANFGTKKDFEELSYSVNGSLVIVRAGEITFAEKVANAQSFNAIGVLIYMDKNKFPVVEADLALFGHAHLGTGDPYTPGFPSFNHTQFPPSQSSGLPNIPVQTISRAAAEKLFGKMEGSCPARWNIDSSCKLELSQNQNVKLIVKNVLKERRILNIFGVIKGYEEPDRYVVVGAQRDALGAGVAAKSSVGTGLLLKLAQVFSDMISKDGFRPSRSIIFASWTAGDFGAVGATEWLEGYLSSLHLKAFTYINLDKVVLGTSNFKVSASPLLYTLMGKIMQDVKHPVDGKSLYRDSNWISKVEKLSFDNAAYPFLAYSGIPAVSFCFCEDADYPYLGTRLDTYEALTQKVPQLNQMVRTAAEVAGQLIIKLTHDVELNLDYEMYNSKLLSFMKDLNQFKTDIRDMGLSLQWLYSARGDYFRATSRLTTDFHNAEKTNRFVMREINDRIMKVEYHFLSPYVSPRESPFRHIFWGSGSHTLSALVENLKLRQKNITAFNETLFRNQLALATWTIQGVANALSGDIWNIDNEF

B1: DE-gp100-huHF (other)
chain: MHHHHHHLETTASTSQVRQNYHQDSEAAINRQINLELYASYVYLSMSYYFDRDDVALKNFAKYFLHQSHEEREHAEKLMKLQNQRGGRIFLQDIKKPDCDDWESGLNAMECALHLEKNVNQSLLELHKLATDKNDPHLCDFIETHYLNEQVKAIKELGDHVTNLRKMGAPEGSKVPRNQDWLEFSGLAEYLFDKHTLGDSDNES
modifications: One monomer is given; the particle is a self-assembled 24-mer. In the MST assay the His tag carried RED-tris-NTA dye non-covalently.
notes: also called huHF-DE-gp100; gp100-huHF (DE loop)
[1]
  Kd: 30.5 nM
[2]
  Kd: 9.78 nM
[3]
  Kd: 30.5 nM

B2: AB-gp100-huHF (other)
chain: HHHHHHMTTASTSQVRQNYHQDSEAAINRQINLELYASYVYLSMSYYFDRDDKVPRNQDWLVALKNFAKYFLHQSHEEREHAEKLMKLQNQRGGRIFLQDIKKPDCDDWESGLNAMECALHLEKNVNQSLLELHKLATDKNDPHLCDFIETHYLNEQVKAIKELGDHVTNLRKMGAPESGLAEYLFDKHTLGDSDNES
notes: also called gp100-huHF (AB loop); TSA insertion site AB, gp100
[1]
  Kd: 40.8 nM
[2]
  Kd: 29.7 nM

B3: AB-AH1-huHF (other)
chain: B2 chain with K53S, V54P, P55S, R56Y, N57V, Q58Y, D59H, W60Q, L61F
notes: also called AH1-huHF (AB loop); TSA insertion site AB, AH1
[2]
  Kd: 10.9 nM

B4: BC-gp100-huHF (other)
chain: HHHHHHMTTASTSQVRQNYHQDSEAAINRQINLELYASYVYLSMSYYFDRDDVALKNFAKYFLHQSHEEREHAEKLMKLQNQRGGRIFLQDIKKPDCDDKVPRNQDWLWESGLNAMECALHLEKNVNQSLLELHKLATDKNDPHLCDFIETHYLNEQVKAIKELGDHVTNLRKMGAPESGLAEYLFDKHTLGDSDNES
notes: also called gp100-huHF (BC loop); TSA insertion site BC, gp100
[1]
  Kd: 48 nM
[2]
  Kd: 14 nM

B5: BC-AH1-huHF (other)
chain: B4 chain with K100S, V101P, P102S, R103Y, N104V, Q105Y, D106H, W107Q, L108F
notes: also called AH1-huHF (BC loop); TSA insertion site BC, AH1
[2]
  Kd: 107 nM

B6: CD-gp100-huHF (other)
chain: HHHHHHMTTASTSQVRQNYHQDSEAAINRQINLELYASYVYLSMSYYFDRDDVALKNFAKYFLHQSHEEREHAEKLMKLQNQRGGRIFLQDIKKPDCDDWESGLNAMECALHLEKNVNQSLLELHKLATDKNDKVPRNQDWLPHLCDFIETHYLNEQVKAIKELGDHVTNLRKMGAPESGLAEYLFDKHTLGDSDNES
notes: also called CD-loop-gp100; huHF-CD-gp100
[1]
  Kd: 15.9 nM
[2]
  Kd: 4.89 nM

B7: CD-AH1-huHF (other)
chain: B6 chain with K134S, V135P, P136S, R137Y, N138V, Q139Y, D140H, W141Q, L142F
notes: also called huHF-CD loop-AH1; CD-loop-AH1
[2]
  Kd: 3.45 nM

B8: NA-gp100-huHF (other)
chain: MHHHHHHTTASTSKVPRNQDWLQVRQNYHQDSEAAINRQINLELYASYVYLSMSYYFDRDDVALKNFAKYFLHQSHEEREHAEKLMKLQNQRGGRIFLQDIKKPDCDDWESGLNAMECALHLEKNVNQSLLELHKLATDKNDPHLCDFIETHYLNEQVKAIKELGDHVTNLRKMGAPESGLAEYLFDKHTLGDSDNES
modifications: One monomer is given; the particle is a self-assembled 24-mer. In the MST assay the His tag carried RED-tris-NTA dye non-covalently.
notes: also called gp100 fused between N-terminus and A helix; TSA insertion site NA, gp100
[2]
  Kd: 152 nM

B9: EC-gp100-huHF (other)
chain: MHHHHHHEFTTASTSQVRQNYHQDSEAAINRQINLELYASYVYLSMSYYFDRDDVALKNFAKYFLHQSHEEREHAEKLMKLQNQRGGRIFLQDIKKPDCDDWESGLNAMECALHLEKNVNQSLLELHKLATDKNDPHLCDFIETHYLNEQVKAIKELGDHVTNLRKMGAPESGLAEYLFDKHTLGDSKVPRNQDWLDNES
modifications: One monomer is given; the particle is a self-assembled 24-mer. In the MST assay the His tag carried RED-tris-NTA dye non-covalently.
notes: also called gp100 fused between E helix and C-terminus; TSA insertion site EC, gp100
[2]
  Kd: 5.68 nM

B10: DE-AH1-huHF (other)
chain: HHHHHHMTTASTSQVRQNYHQDSEAAINRQINLELYASYVYLSMSYYFDRDDVALKNFAKYFLHQSHEEREHAEKLMKLQNQRGGRIFLQDIKKPDCDDWESGLNAMECALHLEKNVNQSLLELHKLATDKNDPHLCDFIETHYLNEQVKAIKELGDHVTNLRKMGAPESPSYVYHQFSGLAEYLFDKHTLGDSDNES
notes: also called AH1-huHF (DE loop); TSA insertion site DE, AH1
[2]
  Kd: 6.11 nM
